Laboratory results: publication PMC4521584

B1: WT MutS (Escherichia coli K-12) (protein)
chain: MSAIENFDAHTPMMQQYLRLKAQHPEILLFYRMGDFYELFYDDAKRASQLLDISLTKRGASAGEPIPMAGIPYHAVENYLAKLVNQGESVAICEQIGDPATSKGPVERKVVRIVTPGTISDEALLQERQDNLLAAIWQDSKGFGYATLDISSGRFRLSEPADRETMAAELQRTNPAELLYAEDFAEMSLIEGRRGLRRRPLWEFEIDTARQQLNLQFGTRDLVGFGVENAPRGLCAAGCLLQYAKDTQRTTLPHIRSITMEREQDSIIMDAATRRNLEITQNLAGGAENTLASVLDCTVTPMGSRMLKRWLHMPVRDTRVLLERQQTIGALQDFTAGLQPVLRQVGDLERILARLALRTARPRDLARMRHAFQQLPELRAQLETVDSAPVQALREKMGEFAELRDLLERAIIDTPPVLVRDGGVIASGYNEELDEWRALADGATDYLERLEVRERERTGLDTLKVGFNAVHGYYIQISRGQSHLAPINYMRRQTLKNAERYIIPELKEYEDKVLTSKGKALALEKQLYEELFDLLLPHLEALQQSASALAELDVLVNLAERAYTLNYTCPTFIDKPGIRITEGRHPVVEQVLNEPFIANPLNLSPQRRMLIITGPNMGGKSTYMRQTALIALMAYIGSYVPAQKVEIGPIDRIFTRVGAADDLASGRSTFMVEMTETANILHNATEYSLVLMDEIGRGTSTYDGLSLAWACAENLANKIKALTLFATHYFELTQLPEKMEGVANVHLDALEHGDTIAFMHSVQDGAASKSYGLAVAALAGVPKEVIKRARQKLRELESISPNAAATQVDGTQMSLLSVPEETSPAVEALENLDPDSLTPRQALEWIYRLKSLV
notes: full-length MutS from mutS gene in pET-3D, recombinant, purified; homodimer (can form tetramers)
B2: WT MutS (Escherichia coli K-12; I597A/M759D/P595A) (protein)
chain: MSAIENFDAHTPMMQQYLRLKAQHPEILLFYRMGDFYELFYDDAKRASQLLDISLTKRGASAGEPIPMAGIPYHAVENYLAKLVNQGESVAICEQIGDPATSKGPVERKVVRIVTPGTISDEALLQERQDNLLAAIWQDSKGFGYATLDISSGRFRLSEPADRETMAAELQRTNPAELLYAEDFAEMSLIEGRRGLRRRPLWEFEIDTARQQLNLQFGTRDLVGFGVENAPRGLCAAGCLLQYAKDTQRTTLPHIRSITMEREQDSIIMDAATRRNLEITQNLAGGAENTLASVLDCTVTPMGSRMLKRWLHMPVRDTRVLLERQQTIGALQDFTAGLQPVLRQVGDLERILARLALRTARPRDLARMRHAFQQLPELRAQLETVDSAPVQALREKMGEFAELRDLLERAIIDTPPVLVRDGGVIASGYNEELDEWRALADGATDYLERLEVRERERTGLDTLKVGFNAVHGYYIQISRGQSHLAPINYMRRQTLKNAERYIIPELKEYEDKVLTSKGKALALEKQLYEELFDLLLPHLEALQQSASALAELDVLVNLAERAYTLNYTCPTFIDKPGIRITEGRHPVVEQVLNEAFAANPLNLSPQRRMLIITGPNMGGKSTYMRQTALIALMAYIGSYVPAQKVEIGPIDRIFTRVGAADDLASGRSTFMVEMTETANILHNATEYSLVLMDEIGRGTSTYDGLSLAWACAENLANKIKALTLFATHYFELTQLPEKMEGVANVHLDALEHGDTIAFDHSVQDGAASKSYGLAVAALAGVPKEVIKRARQKLRELESISPNAAATQVDGTQMSLLSVPEETSPAVEALENLDPDSLTPRQALEWIYRLKSLV
notes: as for B1

Substrate: Nc1ncnc2c1ncn2[C@@H]1O[C@H](COP(=O)(O)OP(=O)(O)OP(=O)(O)O)[C@@H](O)[C@H]1O
Assay: ATPase assay coupled to NADH oxidation
Format: biochemical, Escherichia coli
Conditions: 5 μM MutS, 3.125-500 μM ATP

Row | Protein | Km | kcat
1 | B1 | 8.1 ± 0.7 µM | 0.138 ± 0.0033 s⁻¹
2 | B2 | 9.5 ± 1 µM | 0.0633 ± 0.0017 s⁻¹
